19 molecules from patent US20190201542A1 (AbbVie / Abbott, published 2019) can be followed below.

Positions count from the first letter of the chain named.

The target in one test is T1, human DLL3 (human, UniProt Q9NYJ7 27-492, limits assumed).
T1 construct: also called hDLL3; DLL3 protein
T1 sequence: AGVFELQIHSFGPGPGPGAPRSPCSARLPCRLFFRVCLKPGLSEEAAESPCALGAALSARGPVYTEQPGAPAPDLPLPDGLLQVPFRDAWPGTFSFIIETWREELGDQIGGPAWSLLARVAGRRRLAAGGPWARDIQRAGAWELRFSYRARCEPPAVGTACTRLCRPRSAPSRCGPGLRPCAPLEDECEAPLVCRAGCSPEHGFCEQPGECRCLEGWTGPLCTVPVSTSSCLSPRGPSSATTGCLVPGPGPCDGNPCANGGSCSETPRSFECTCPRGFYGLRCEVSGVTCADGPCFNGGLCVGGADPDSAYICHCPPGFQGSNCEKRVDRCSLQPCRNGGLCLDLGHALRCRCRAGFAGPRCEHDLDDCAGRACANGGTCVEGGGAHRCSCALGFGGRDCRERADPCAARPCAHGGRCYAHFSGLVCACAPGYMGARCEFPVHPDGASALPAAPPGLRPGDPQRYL
Put plainly: screen on immobilized hDLL3 or h293-hDLL3 cells. In outline:
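Solid-phase ELISA on DLL3-His (0.5 μg/ml coating), developed with HRP anti-mouse IgG and TMB and read at OD 450, was one screen for supernatants of single-cell hybridomas from human DLL3-immunized mice taken after 10 days in culture. Flow-cytometry binding counted as positive only above the control.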

The target of a further test is T2, human ASCL1 (human, UniProt P50553 1-236, limits assumed).
T2 construct: Transcription factor; also called hASCL1; immobilized human ASCL1
T2 sequence (looked up): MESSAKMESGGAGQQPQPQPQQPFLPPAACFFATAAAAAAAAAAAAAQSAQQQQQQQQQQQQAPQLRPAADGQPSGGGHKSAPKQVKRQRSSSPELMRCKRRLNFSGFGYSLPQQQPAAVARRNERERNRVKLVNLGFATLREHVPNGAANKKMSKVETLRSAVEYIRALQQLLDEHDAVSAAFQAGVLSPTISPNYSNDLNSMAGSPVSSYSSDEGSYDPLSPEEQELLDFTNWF
Put plainly: screen on immobilized hASCL1 or h293-hASCL1 cells.

B1: SC16.140 (antibody, V domains shown)
VH: QVQLQQSGPELVRPGASVKMSCKASGYTFTSYWMHWVKQRPGQGLEWIGMIDPSNSETRLNQKFKDKATLNVDKSSNTAYMQLSSLTSEDSAVYYCAVMDYYFDYWGQGTTLTVSS
VL: DIVLTQSLASLAVSLGQRATISCRASKSVSTSGYSYMHWYQQKPGQPPKLLIYLASNLESGVPARFSGSGSGTDFTLNIHPVEDEDAATYYCQHSRELPFTFGGGTKLEIK
notes: murine mAb
With B1, the binding result with human DLL3 is listed as “binds”.

B2: SC72.165 (antibody, V domains shown)
VH: QVQLQQPGAELVRPGASVRLSCKASGYSFTSYWINWVKQRPGQGLEWIGNIYPGSSNTNYNEKFKRKATLTVDTSSSTAYMQLSSLTSDDSAVYYCARSESDYWGQGTTLTVSS
VL: DIVLTQSPASLAVSPGQRATISCKASQSVGYDGDTYLSWYQQKPGQPPKLLIYGVSILESGIPARFSGSGSGTDFTLNIHPVEEEDAATYYCQQSSEDPYTFGGGTKLEIK
notes: murine mAb
With B2, the binding result in the test with human ASCL1 is listed as “binds”.

B3: SC16.148 (antibody, V domains shown)
VH: QIQLVQSGPELKKPGETVKISCKASGYTLTNYGMNWVKQAPGKGLKWMGWINTYTGEPTYADDFKGRFAFSLETSARIVYLQINNLKNEDTATYFCAKYEAHEGFVYWGQGTLVTVSA
VL: QIVLTQSPAIMSASPGEKVTMTCSASSSVSYMYWYQQKPGSSPRLLIYDTSNLASGVPVRFSGSGSGTSYSLTISRMEAEDTATYYCQEWSNNPLTFGDGTKLELK
notes: murine mAb
Regarding B3, the binding result with human DLL3 is listed as “binds”.

B4: SC16.141 (antibody, V domains shown)
VH: QVQLKQSGPGLVAPSQSLFITCTVSGFSLTSYEINWVRQPPGKGLEWLGVIWTGGSTNYNSALISRLSISKDNSKSLVFLKMNSLQTDDTAIYYCVRGVYAMDYWGQGTSVTVSS
VL: DIKMTQSPSSMYASLGERVTITCKASQDINSYLSWFQQKPGKSPKTLIYRANRLVDGVPSRFSGSGSGQDYSLTISSLEYEDMGIYYCLQYDEFPFTFGSGTKLEIK
notes: murine mAb
In the case of B4, the binding result in the test with human DLL3 is “binds”.

B5: SC72.28 (antibody, V domains shown)
VH: DVQLQQSGAELVRPGALVKLSCKASGFNIKDYLIHWVKQRPEQGLEWIGCIDPENGNTIYDPRFQGKAKITSDTSSTTAYLRLTSLTSEDTAVYYCGRGGLDYWGQGTTLTVSS
VL: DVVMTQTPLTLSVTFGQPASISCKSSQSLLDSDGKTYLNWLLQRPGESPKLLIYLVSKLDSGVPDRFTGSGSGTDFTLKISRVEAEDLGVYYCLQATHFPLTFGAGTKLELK
notes: murine mAb
For the molecule B5, the binding result with human ASCL1 is listed as “binds”.

B6: SC72.132 (antibody, V domains shown)
VH: EVKLVESEGGLVQPGSSMKLSCTASGFTFSDYYMAWVRQVPEKGLEWVATIDYDGSNTYYLDSLKSRFIISRDNAKNILYLQMSSLKSEDTATYYCARDGGYDEDYFDYWGQGTTLTVSS
VL: DIVMSQSPSSLAVSVGEKVTLSCKSSQTLLYSSNQQNYLAWYQQKPGQSPKLLIYWASTRESGVPDRFTGSGSGTDFTLTISSVKAEDLAVYYCHQYYTYPFTFGSGTKLEIK
notes: murine mAb
Regarding B6, in the test with human ASCL1, the binding result was “binds”.

B7: SC16.136 (antibody, V domains shown)
VH: EVQLQQSGPELVKPGASVKMSCKASGYTFTSYVMHWVKQKPGQGLEWIGYINPYNDGTKYNEKFKGKATLTSDKSSSTAYMELSSLTSEDSAVYYCARDRSGYEDYYGMDYWGQGTSVTVSS
VL: DIQMTQSPASLSASVGETVTITCRASGNIHNYLAWYQQKQGKSPHLLVYNAKTLADGVPSRFSGSGSGTQYSLKINSLQPEDFGSYYCQHFWSTPWTFGGGTKLEIK
notes: murine mAb
Take B7: in the test with human DLL3, the binding result was “binds”.

B8: SC72.93 (antibody, V domains shown)
VH: QVQLQQSGAELVRPGASVTLSCKASGYIFIDYEMHWVKQTPVHGLEWIGSIDPETGDTVYNQKFKGKATLTADKSSSTAYMELRSLTSEDSAVYYCSRGGLDYWGQGTTLTVSS
VL: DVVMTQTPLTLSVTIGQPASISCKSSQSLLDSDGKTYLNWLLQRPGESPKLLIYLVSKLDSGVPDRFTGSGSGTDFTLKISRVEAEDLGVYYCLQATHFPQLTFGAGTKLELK
notes: murine mAb; same VL as SC72.2
As for B8, in the test with human ASCL1, the binding result is on record as “binds”.

B9: SC16.15 (antibody, V domains shown)
VH: QVQLQQSGAELAKPGASVKMSCKASGYTFTRYWIHWIKQRPGQGLEWIGYINPTTVYTEFNQNFKDKATLTADKSSTTASMQLSSLTSEDSAVYYCARGGSNFFDYWGQGTTLTVSS
VL: DIQMTQSPASLAASVGETVAITCRASENIYYNLAWYQQKQGKSPQLLIYTANSLEDGVPSRFSGSGSGTQYSLKINSMQPEDSATYFCKQAYDVPPTFGGGTKLEIK
notes: murine mAb
Turning to B9, the binding result with human DLL3 is recorded as “binds”.

B10: SC72.96 (antibody, V domains shown)
VH: EVQLQQSGPELVKPGASVKMSCKASGYTLTAYNIHWVKQSHGKSLEWIGFINPHSGGTTYNEKFKGKATLTVNKSSSTANMELRSLTSEDSAVYYCASIYYYGSSYFDHWGQGTTLTVSS
VL: DIQMTQSPASLSASVGETVTMTCRASENIHSNLVWYQQKQGKSPQLLVYAATNLADGVPSRFSGSGSGSQFSLKIDSLQPEDFGSYLCQHFYGTPRTFGGGTKLEIK
notes: murine mAb
As to B10, the binding result with human ASCL1 is recorded as “binds”.

B11: SC72.76 (antibody, V domains shown)
VH: QVQLKESGPGLVAPSQSLSITCTVSDFSLTNYAVHWVRQSPGKGLEWLGVIWSDGNTDYNAPFISRLSISKDNSKSQVFFKMNSLQADDTAIYYCASYGDSAYWGQGTLVTVSA
VL: DIVLTQSPASLTVSLGQRATISCRASQSVRTSNYSYMHWYQQKPGQPPKLLIKYASNLESGVPARFSGSGSGTDFTLNIHPVEEEDTATYYCQHHWEIPFTFGGGTKLEIK
notes: murine mAb
On to B11, for which the binding result with human ASCL1 is “binds”.

B12: SC72.91 (antibody, V domains shown)
VH: QVQLQQSGPEVVKPGASVKLSCKASGYTFTTYDINWVKQRPGQGLEWIGWIYFRDGTNKYNEKFKGKATLTVDTSSSTAYMELHSLTSEDSAVYFCASVYDGYYVSGFDIMDYWGQGTSVTVSS
VL: DVVLTQTPLSLPVSLGDQASIYCRSSQSIVHSNGNTYFEWYLQKPGQSPKLLIYKVSNRLSGVPDRFSGSGSGTDFTLKISRVEAVDLGIYYCFQASHVPFTFGAGTKLELK
notes: murine mAb
For the molecule B12, in the test with human ASCL1, the binding result is listed as “binds”.

B13: SC16.143 (antibody, V domains shown)
VH: QVQLQQSGPELVKPGASVRISCKASGYTFTSYYIHWVKQRPGQGLEWIGWIYPGNGNTKYNEKFKGKATLTADKSSSTAYMQISSLTSEDSAVYFCARERWLLLWFAYWGQGTLVTVSA
VL: B12 VL with V3L, L4M, Y22S, F38L, L60F, V86E, I90V, A96G, F101L
notes: murine mAb
With B13, the binding result in the test with human DLL3 is reported as “binds”.

B14: SC72.52 (antibody, V domains shown)
VH: QVQLQQPGSVLVRPGASVKLSCKASGYTFTSYWMHWVKQRPGQGLEWIGEIYPNSGRTNYNEKFKGKATLTVDTSSSTAYVDLSSLTSEDSAVYYCHYYDDNYGYWGQGTTLTVSS
VL: DIVITQDELSNPVTSGESVSISCRSSKSLLYKDGKTYLNWFLQRPGQSPQLLIYLMSTRASGVSDRFSGSGSGTDFTLEISRVKAEDVGVYYCQQFVEYPLTFGAGTKLELK
notes: murine mAb
Consider B14, for which the binding result with human ASCL1 is reported as “binds”.

B15: SC16.147 (antibody, V domains shown)
VH: QIQLVQSGPELTKPGETVKISCKASGYTFTDYSLHWVKQALGKGLKWMGWINTETGEPAYADDFKGRFAFSLETSASTAYLQINDLKNEDTTTYFCGIYDGYAMDYWGQGTSVTVSS
VL: DIQMTQTASSLSASLGDRVTISCRASQDINNYLNWYQQKPDGTVKLLIYYTSRLHSGVPSRFSGSGSGTDYSLTISILEQEDIATYFCQQGDTLPWTFGGGTKLEIK
notes: murine mAb
Consider B15, for which the binding result with human DLL3 is “binds”.

B16: SC16.144 (antibody, V domains shown)
VH: QIQLVQSGPELKKPGETVKISCKASGYTFTNYGMNWVKQAPGKGLKWVGWINTYTGEPTYADDFKGRFAFSLETSASTAYLQIDNLKNEDTATYFCARVGDYVGFDYWGQGTTLTVSS
VL: SIVMTQTPKFLLVSAGDRVTITCKASQSVSNDVGWYQQKPGQSPKLLIYYASNRYNGVPDRFTGSGYGTDFTFTISTVQAEDLAVYFCQQDYSSPWTFGGGTKLEIK
notes: murine mAb
Consider B16, for which the binding result in the test with human DLL3 is given as “binds”.

B17: SC72.94 (antibody, V domains shown)
VH: QVQLQQPGTELVKPGASVKLSCKASAYTFTSLWIHWVKQRPGQGLEWIGDINPSIGDTYYNERFKSKATLTVDKSSSTAYMQLSSLTSEDSAVYYCTTGDSWGQGTTLTVSS
VL: DIQMNQSPSSLSASLGDTITITCRASQGISIWLSWYQQKPGNIPKLLIYKASNLHTGVPPSFSGSGSGTDFTLTISSLQPEDIATYYCLQSQSYPWTFGGGTKLEIK
notes: murine mAb
As for B17, the binding result with human ASCL1 is reported as “binds”.

B18: SC72.63 (antibody, V domains shown)
VH: EVQLLQSGPELVKPGASVKMSCKASGYTLTDYNLHWVKQSHAKSLEWIGYINPYNGVTSYNQRFKGKATLTVNKSSSTAFMEFRSLTSEDSAVYYCVSLYYGDDPFACWGQGTLVTVST
VL: DIQMTQSPASLSASVGETVTMTCRASENIYSNLAWYQQKQGKSPQLLVYAATNLADDVPSRFSGSGSGTQFSLKINSLQPEDFGIYYCHHFYGSPLTFGAGTKLELK
notes: murine mAb
Take B18: the binding result in the test with human ASCL1 is “binds”.

B19: SC16.137 (antibody, V domains shown)
VH: EVQLVESGGDLVKPGGSLKLSCAASGFTFSSYGMSWVRQTPDKRLEWVATISSGGSYTYYPDSVKGRFTISRDNAKNTLYLQMSSLKSEDTAMYYCARRRADAMDYWGQGTSVTVSS
VL: QIVLTQSPAIMSASLGEEITLTCSASSSVSYMHWYQQKSGTSPKLLIYSTSNLASGVPSRFSGSGSGTFYSLTISSVEAEDAADYYCHQWSSYHTFGGGTKLEIKR
notes: murine mAb
Turning to B19, the binding result with human DLL3 is reported as “binds”.
